In patent US10078082B2, “Detection of free and protein-bound non-human gal-alpha(1-3)-gal epitope” (National University of Ireland, Galway, priority 2012, dated 2018):
Where “and” joins values, the source holds several entries; their conditions need not be identical. Identical values can stand only once.

Columns and labels:
[1] = NGC microarray specificity analysis (over 50 structures); format: binding; settings: FIG. 8
Text: FIG. 8: Comparison of the specificity of selected scFv fragments A4, A11 and G12 against a panel of related NGCs compared directly to the specificity binding pattern of the lectin GS-1-B4, considered as highly specific for α-Gal residues.
The spectacular specificity of the scFvs has also been determined by analysis on an NGC microarray containing over 50 different structures. […] ScFv-based competitive ELISA. Competitive ELISAs were established with each of the three scFvs examined using as standard the free Gal-α-(1→3)-Gal disaccharide within the concentration range 0.001 to 10000 μg/ml (2.93 nM to 29.3 mM). […] A panel of 21 related sugars were tested in the scFv-based competitive assays (Table 1). […] All three scFvs were more reactive to the disaccharide than Gal-α-(1,3)-Gal-containing trisaccharides, as shown by lower inhibitory activity of the trisaccharides and supporting the results obtained in the direct ELISA.

[2] = scFv-based competitive ELISA, free Gal-α-(1→3)-Gal as standard, immobilized Gal-α-(1→3)-Gal-BSA; format: binding; settings: for ED50: free Gal-α-(1→3)-Gal disaccharide standard, plates coated with Gal-α-(1→3)-Gal-BSA 10 μg/ml, FIG. 6
Description: FIG. 6: Standard curves for competitive ELISA given by scFv clones G12, A4, and A11. Plates were coated with immobilized Gal-α-(1→3)-Gal-BSA [10 μg/ml] and incubated with 2.5 μg/ml of the scFvs in the presence of an increasing concentrations of free Gal-α-(1→3)-Gal. The error bars indicate the standard error of the mean of triplicate determinations. Each scFv was evaluated in a competitive ELISA format using free Gal-α-(1,3)-Gal as standard. Microtitre plate wells were coated and blocked as previously described. Standard solutions were prepared in PBS (pH 7.2), ranging in concentration from 2 μg/ml (5.84 μM) to 20 mg/ml (58.4 mM). For the assay, 50 μl of each standard and buffer blank were added to designated wells in triplicate, followed by 50 μl of a sub-saturating concentration (1 μg/ml) of the appropriate scFv, giving a final standard concentration in the assay of 1 μg/ml (2.92 μM) to 10 mg/ml (29.2 mM). The plate was incubated for 1 hour at 37° C. with shaking After washing, bound scFv was detected as previously described. The ratios of the OD for each standard versus the OD given by the blank (B/Bo) were plotted versus standard concentration and standard curve plotted using SigmaPlot (v11, Systat Software Inc). The detection limits were determined as the concentration corresponding to the mean response for zero standard minus three times the standard deviation (SD). Inhibition of scFv by a panel of free sugars. scFv binding to Gal-α-(1→3)-Gal-BSA was determined against a panel of 21 free form sugars; D-Cellibiose, Melibiose, D-Raffinose, Lactulose, Palatinose, β-Gentibiose, D+ Trehalose, D+ Turanose, L− Fructose, D+ Glucose, Sucrose, Galacto-N-biose, 4β-Galactobiose, gal-α(1-3)-gal-β-(1-4)-gal, gal-α(1-3)-gal-β-(1-4)-glc, gal-α(1-3)-gal-β-(1-4)-gal-all-3)-gal, Laminarbiose, β1-4-D-Xylobiose, N-Acetyl-D-glucoseamine (GlcNAc), Galactose, N-Acetyl-D-lactosamine (LacNAc), (sourced from Sigma Aldrich and Dextra, UK). Inhibitions were performed by serial dilutions of free sugars and a sub-saturating concentration scFv added to each dilution and pre-incubated for 60 minutes at 37° C., prior to performing ELISA against Gal-α-(1→3)-Gal-BSA as used throughout. The percent binding of the scFv was plotted against the […], and the 50% effective dose determined (ED50; dose of free sugar causing 50% displacement of the scFv).

[3] = Thermal denaturation monitored by far UV CD ellipticity; format: physicochemical; settings: for HD / Tm: λ 208
Description: (§1) Two types of experiments were performed: firstly, the near UV circular dichroism (CD) spectra of the scFvs in the absence and presence of 4 mM of both disaccharides have been compared. Secondly, the effect of the disaccharides on the thermal stability of the scFvs has been studied.
Samples were diluted in NaPi (10 mM)-NaCl (150 mM) pH 7.2 and either concentrated by ultrafiltration twice (for small amounts) or exhaustively dialyzed. CD spectra were acquired at 20° C. in a J-810 spectropolarimeter, equipped with a Peltier temperature control system, using a bandwidth of 1 nm, a scan rate of 20 nm/min and a response time of 4 s, collecting data every 0.2 nm and 3 accumulations for each spectrum. Near-UV spectra were registered at around 1.0 mg ml^−1 protein concentration in 1-cm path-length cells while far-UV spectra were recorded in 0.1 cm path-length quartz cells at a protein concentration of around 0.2 mg ml^−1. For all CD spectra, the corresponding buffer baseline was subtracted. […] Ellipticity changes were collected every 0.2° C. and spectra were collected every 10° C. The thermal denaturation profiles were fitted to a sigmoidal function using the equation:—
where Θ(T) represents the ellipticity at temperature T (Kelvin), ΘN the ellipticity of the native protein, n the number of transitions, ΔΘ1 the ellipticity increment of transition i, R the gas constant and Tmi and HDi the temperature at the transition midpoint (melting temperature) and the parameter which describes the cooperativity (slope) of the corresponding transition, respectively.
In the second set of experiments, the thermal stability of the scFvs in the absence and presence of the disaccharides was investigated. With this type of experiment, we were able to get: 1) the far UV CD spectra at increasing temperatures, which gave information on changes in the secondary structure of the proteins upon heating and 2) the profile of the change in ellipticity at a certain wavelength, also with increasing temperatures, that allowed the calculation of the temperature of transition (Tm). Direct comparison of the Tm in the absence and presence of sugar provided information about the effect of the sugar on the scFvs, a thermal stabilisation (i.e. an increase in the Tm in the presence of the sugar) being indicative of interaction.

[4] = Near UV circular dichroism interaction study with disaccharides; format: binding; settings: pH 7.2, 20° C.
Description: The scFvs A4, A11 and G12 were used to check their interaction with Galα(1,3)Galβ1-OMe (Carbosynth) and with melibiose, the latter as negative control.
as §1
Samples were diluted in NaPi (10 mM)-NaCl (150 mM) pH 7.2 and either concentrated by ultrafiltration twice (for small amounts) or exhaustively dialyzed. CD spectra were acquired at 20° C. in a J-810 spectropolarimeter, equipped with a Peltier temperature control system, using a bandwidth of 1 nm, a scan rate of 20 nm/min and a response time of 4 s, collecting data every 0.2 nm and 3 accumulations for each spectrum. Near-UV spectra were registered at around 1.0 mg ml^−1 protein concentration in 1-cm path-length cells while far-UV spectra were recorded in 0.1 cm path-length quartz cells at a protein concentration of around 0.2 mg ml^−1. For all CD spectra, the corresponding buffer baseline was subtracted. Thermal stability was evaluated by measuring ellipticity changes at 208 nm while increasing temperature from 20 to 90° C., with a constant rate of 40° C./h. Ellipticity changes were collected every 0.2° C. and spectra were collected every 10° C. The thermal denaturation profiles were fitted to a sigmoidal function using the equation:—

[5] = in the presence of 4 mM Galα(1,3)Galβ1-OMe, 208 nm
[6] = 4 mM melibiose (negative control)

Row | Molecule | Specificity for the Gal-α-(1→3)-Gal epitope compared with GS-1-B4 [1] | ED50, composite standard curve ([2]; composite curve from 9 independent runs, FIG. 7, listed as A4) | ED50 ([2]; listed as A4) | HD ([3]; +4 mM Galα(1,3)Galβ1-OMe) | Tm ([3]; +4 mM Galα(1,3)Galβ1-OMe) | HD ([3]; Pure scFv) | Tm ([3]; Pure scFv) | Change in cooperativity (HD) [3, 5] | Change of near UV CD spectrum ([4]; 4 mM Galα(1,3)Galβ1-OMe) | Change of near UV CD spectrum [4, 6] | ED50 ([2]; listed as A11) | HD ([3]; +4 mM melibiose) | Tm ([3]; +4 mM melibiose) | Stabilisation (increase in Tm) [3, 5]
1 | scFv A4: chicken anti-Gal-α-(1→3)-Gal single chain antibody fragment, Seq Id No. 2 (protein, Synthetic protein sequence for scFv-A4 antibody fragment for detecting non-human Gal-alpha(1-3)-Gal) scFv: QAALTQPSSVSTNPGGTVKITCSGGNGNYGWYQQKSPGSAPVTVIYSNNKRPSDIPSRFSGSKSGSTATLTITGVQVDDEAVYFCGAYDNTYVGVFGAGTTLTVLGQSSRSSSGGGSSGGGGSAVTLDESGGGLQTPGGGLSLVCKASGFTFSSYSMQWVRQTPGKGLEFVAGIGYSDSYTYFGPAVKGRATISRDNGQNTVRLQLNNLRAEDTATYYCARSADTIYGCTHPWCSADNIDAWGHGTEVIVSSTSGQAGQ | much higher specificity | 327 μg/ml and 0.95 mM | 311 μg/ml and 0.91 mM | 52 ± 3 kcal/mol | 74.8 ± 0.3 °C | 57 ± 3 kcal/mol | 64.6 ± 0.2 °C | ~4.7 kcal/mol | molar ellipticity per residue in general decreased | remained unchanged | – | – | – | –
2 | scFv A11: chicken anti-Gal-α-(1→3)-Gal single chain antibody fragment, Seq Id No. 4; clone D9 has the same sequence (protein, Synthetic protein sequence forscFv-A11 antibody fragment for detecting non-human Gal-alpha(1-3)-Gal) scFv: QAALTQPSSVSANPGETVKITCSGGGSYGGSYYYGWYQQKSPGSAPVTVIYSNDNRPSDIPSRFSGSTSGSTSTLTITGVQVDDEAVYYCGTYDSSYVGIFGAGTALTVLGQSSRSSGGGSSGGGGSAVTLDESGGGLQTPGGGLSLVCKASGFTFSSYSMQWVRQTPGKGLEFVAGIGYSDSYTYFGPAVKGRATISRDNGQNTVRLQLNNLRAEDTATYYCARSADTIYGCTHPWCSADNIDAWGHGTEVIVSSTSGQAGQ | much higher specificity | – | – | 95 ± 6 kcal/mol | 69.0 ± 0.2 °C | 134 ± 7 kcal/mol | 61.3 ± 0.1 °C | ~38.5 kcal/mol | No significant changes were observed | No significant changes were observed | 1225 μg/ml and 3.58 mM | 141 ± 7 kcal/mol | 61.1 ± 0.1 °C | 7.7 °C
